# Literature values as cited in paper PMC10347550, “Cyclic Ruthenium-Peptide Conjugates as Integrin-Targeting Phototherapeutic Prodrugs for the Treatment of Brain Tumors” (Journal of the American Chemical Society, 2023).
# Target: fibrinogen (Homo sapiens) (UniProt P02671)
# Sequence (P02671 36-866, chain 1 of 3): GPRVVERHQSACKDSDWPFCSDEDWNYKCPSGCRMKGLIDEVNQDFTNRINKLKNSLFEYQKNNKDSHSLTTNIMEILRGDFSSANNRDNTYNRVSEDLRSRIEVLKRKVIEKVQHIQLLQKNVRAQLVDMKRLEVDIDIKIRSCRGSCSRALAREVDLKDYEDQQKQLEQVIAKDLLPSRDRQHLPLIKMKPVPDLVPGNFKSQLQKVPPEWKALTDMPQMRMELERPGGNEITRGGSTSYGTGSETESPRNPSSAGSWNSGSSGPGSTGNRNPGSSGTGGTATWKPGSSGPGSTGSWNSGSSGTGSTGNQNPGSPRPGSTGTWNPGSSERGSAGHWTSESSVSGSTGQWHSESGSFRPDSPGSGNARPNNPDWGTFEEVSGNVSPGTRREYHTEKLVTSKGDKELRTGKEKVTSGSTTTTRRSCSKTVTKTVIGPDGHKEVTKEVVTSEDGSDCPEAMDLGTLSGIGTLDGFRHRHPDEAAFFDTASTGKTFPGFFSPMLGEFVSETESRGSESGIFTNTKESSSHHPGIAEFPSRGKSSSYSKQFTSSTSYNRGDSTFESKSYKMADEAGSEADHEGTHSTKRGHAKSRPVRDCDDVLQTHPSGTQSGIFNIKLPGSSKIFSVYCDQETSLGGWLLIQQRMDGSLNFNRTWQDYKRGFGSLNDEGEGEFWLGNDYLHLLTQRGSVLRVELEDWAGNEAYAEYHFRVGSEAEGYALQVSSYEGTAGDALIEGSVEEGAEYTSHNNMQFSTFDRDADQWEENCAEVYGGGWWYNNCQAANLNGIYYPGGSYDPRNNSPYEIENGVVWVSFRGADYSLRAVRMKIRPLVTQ
# Sequence (P02675 45-491, chain 2 of 3, further chain): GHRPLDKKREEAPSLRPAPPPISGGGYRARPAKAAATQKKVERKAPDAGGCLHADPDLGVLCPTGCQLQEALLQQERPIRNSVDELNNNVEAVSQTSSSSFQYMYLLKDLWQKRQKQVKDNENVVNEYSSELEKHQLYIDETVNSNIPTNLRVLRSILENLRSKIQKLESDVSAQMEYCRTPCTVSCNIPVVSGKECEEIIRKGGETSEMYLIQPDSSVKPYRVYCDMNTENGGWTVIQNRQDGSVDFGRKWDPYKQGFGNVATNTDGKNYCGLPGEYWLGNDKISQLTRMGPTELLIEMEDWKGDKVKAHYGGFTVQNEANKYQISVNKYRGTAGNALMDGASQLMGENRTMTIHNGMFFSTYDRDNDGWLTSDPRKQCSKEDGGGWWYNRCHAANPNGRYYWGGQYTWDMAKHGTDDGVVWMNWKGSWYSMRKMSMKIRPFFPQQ
# Sequence (P02679 27-453, chain 3 of 3, further chain): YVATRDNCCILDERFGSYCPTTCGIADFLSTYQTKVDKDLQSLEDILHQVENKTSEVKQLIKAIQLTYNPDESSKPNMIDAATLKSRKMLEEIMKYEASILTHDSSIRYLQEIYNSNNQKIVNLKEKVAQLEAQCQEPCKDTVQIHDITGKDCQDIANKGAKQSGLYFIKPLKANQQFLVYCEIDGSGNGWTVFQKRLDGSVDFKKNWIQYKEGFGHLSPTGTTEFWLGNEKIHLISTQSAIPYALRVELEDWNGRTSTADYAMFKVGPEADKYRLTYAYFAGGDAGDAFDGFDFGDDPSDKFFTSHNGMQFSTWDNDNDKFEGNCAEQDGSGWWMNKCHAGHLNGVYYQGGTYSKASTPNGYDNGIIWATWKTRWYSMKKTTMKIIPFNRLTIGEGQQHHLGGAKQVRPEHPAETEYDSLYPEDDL
substance,measurement,value
integrin αIIbβ3 (from UniProt P08514),Kd,30 nM
